B1: SEQ ID NO 12 (antibody, V domains shown)
VH: EVQLVESGGGLVQPGGSLRLSCTVSGFSLSTYAMSWVRQAPGKGLEWIGVIASNADTYYASWAKGRFTISRDNSKNTLYLQMNSLRAEDTAVYYCARHPGSAGYGYAVYYAMDPWGQGTLVTVSS
VL: DIQMTQSPSSLSASVGDRVTITCQASQPIHYAINWYQQKPGKAPKLLIYGTSHRKMGVPSRFSGSGSGTDYTLTISSLQPEDFATYYCQQGYIVALKFGGGTKVEIK
notes: also called selected clone from LxC libraries; LxC clone
B2: SEQ ID NO 18 (antibody, V domains shown)
VH: EVQLVESGGGLVQPGGSLRLSCTVSGFSLSTYAMSWVRQAPGKGLEWIGVIASNADTYYASWAKGRFTISRDNSKNTLYLQMNSLRAEDTAVYYCARHPGSAGYGYAVYYAMDPWGQGTLVTVSS
VL: DIQMTQSPSSLSASVGDRVTITCKASEDIRYGLNWYQQKPGKAPKLLIYGGSYLRWGVPSRFSGSGSGTDYTLTISSLQPEDFATYYCQQGYRVPIRFGGGTKVEIK
notes: As m4; also called selected clone from LxC libraries; LxC clone
B3: SEQ ID NO 15 (antibody, V domains shown)
VH: EVQLVESGGGLVQPGGSLRLSCTVSGFSLSTYAMSWVRQAPGKGLEWIGVIASNADTYYASWAKGRFTISRDNSKNTLYLQMNSLRAEDTAVYYCARHPGSAGYGYAVYYAMDPWGQGTLVTVSS
VL: DIQMTQSPSSLSASVGDRVTITCQASQKIHYAINWYQQKPGKAPKLLIYGTSYLGGGVPSRFSGSGSGTDFTLTISSLQPEDFATYYCQQGYIVPNSFGGGTKVEIK
notes: As m4
B4: SEQ ID NO 17 (antibody, V domains shown)
VH: EVQLVESGGGLVQPGGSLRLSCTVSGFSLSTYAMSWVRQAPGKGLEWIGVIASNADTYYASWAKGRFTISRDNSKNTLYLQMNSLRAEDTAVYYCARHPGSAGYGYAVYYAMDPWGQGTLVTVSS
VL: DIQMTQSPSSLSASVGDRVTITCQASQPIYYGINWYQQKPGKAPKLLIYGHTYRAWGVPSRFSGSGSGTDFTLTISSLQPEDFATYYCQQGYRVGLGFGGGTKVEIK
notes: As m4
B5: SEQ ID NO 16 (antibody, V domains shown)
VH: EVQLVESGGGLVQPGGSLRLSCTVSGFSLSTYAMSWVRQAPGKGLEWIGVIASNADTYYASWAKGRFTISRDNSKNTLYLQMNSLRAEDTAVYYCARHPGSAGYGYAVYYAMDPWGQGTLVTVSS
VL: DIQMTQSPSSLSASVGDRVTITCQASQDVKYAINWYQQKPGKAPKLLIYGTSSRGEGVPSRFSGSGSGTDYTLTISSLQPEDFATYYCQQGYVVSIFFGGGTKVEIK
notes: As m4

This assay deals with SARS-CoV-2 spike protein trimer, wild type (SARS-CoV-2, UniProt P0DTC2 16-1213). Briefly: ELISA, purified IgG. (In an ELISA, binding on a coated surface is turned into a signal by an enzyme label.)
In the case of B1, the binding result was “binds”.
With B2, the binding result is on record as “binds”.
With B3 the entry was “binds”; with B4, “binds”.
The value for B5 was “binds”.
